Patent US20120058120A1, “Targets for Growth Factor Signalling and Methods of Therapy” (priority 2009, published 2012)

Tests used:
[1] = molecular target: T1, TG2 (Homo sapiens, UniProt P21980); assay: TG2-catalysed crosslinking of IGF-I to recombinant extracellular domain of IGF1R, IGF-I Western blot; format: biochemical; conditions: TG2 0.70 μM, IGF-I 25 μg/mL, IGF1R 25 μg/mL, 1 hour, 1 mM CaCl2, pH 7.5
T1 sequence (P21980 1-687): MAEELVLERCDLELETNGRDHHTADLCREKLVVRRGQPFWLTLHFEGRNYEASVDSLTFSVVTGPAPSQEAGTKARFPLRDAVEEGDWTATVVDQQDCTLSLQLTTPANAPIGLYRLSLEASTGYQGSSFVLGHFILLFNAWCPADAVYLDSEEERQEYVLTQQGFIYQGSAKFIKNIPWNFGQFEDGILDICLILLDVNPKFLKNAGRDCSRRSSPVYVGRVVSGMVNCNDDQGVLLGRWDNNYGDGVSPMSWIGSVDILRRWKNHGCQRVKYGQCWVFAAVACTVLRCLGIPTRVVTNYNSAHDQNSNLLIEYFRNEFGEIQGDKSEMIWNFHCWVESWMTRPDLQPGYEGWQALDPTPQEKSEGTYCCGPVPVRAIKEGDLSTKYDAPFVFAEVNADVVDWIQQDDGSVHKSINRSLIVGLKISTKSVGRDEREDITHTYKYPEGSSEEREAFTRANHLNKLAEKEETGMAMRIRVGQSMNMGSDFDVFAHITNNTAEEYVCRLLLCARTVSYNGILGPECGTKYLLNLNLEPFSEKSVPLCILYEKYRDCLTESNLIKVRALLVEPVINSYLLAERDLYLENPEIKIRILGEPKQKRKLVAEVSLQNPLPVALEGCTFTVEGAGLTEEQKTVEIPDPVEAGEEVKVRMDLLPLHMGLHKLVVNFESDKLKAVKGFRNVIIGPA
Method: TG2 (0.70 μM) was reacted with IGF-I (25 μg/mL) and/or recombinant extracellular domain of IGF1R (25 μg/mL; commercially available from R&D Systems) for 1 hour in the presence of 1 mM CaCl2, pH 7.5. At this point, the reaction was stopped by the addition of SDS-PAGE loading buffer. Samples were run through a 4%-12% SDS-PAGE gel, transferred to a PVDF membrane and probed for IGF-I using a goat anti-human IGF-I primary (1:5000 dilution) and HRP-conjugated rabbit anti-goat secondary (1:10,000), and visualised using chemiluminescence.
For it to be able to do this, both IGF-I and the IGF1R would have to be transglutaminase substrates. Because TG2 catalyses the formation of an isopeptide bond which is essentially as stable as a peptide backbone bond, the complex formed will not be broken apart under reducing SDS-PAGE conditions (whereas disulfide and non-covalent interactions will be broken).
So, in this assay we reacted IGF-I and the soluble recombinant extracellular portion of the receptor with TG2, and probed for where IGF-I ended up using a standard Western blot approach. The “smoking gun” for a reaction would be staining for IGF-I appearing at a molecular weight corresponding to […]. […]

[2] = molecular target: T2, FXIII (Homo sapiens, UniProt P00488); assay: IGF-I incubated with FXIII and PEG functionalized with Q- or K-donor TG substrate peptide, IGF-I Western blot; format: biochemical; conditions: after 1 h; Q-donor vs K-donor PEG
T2 sequence (P00488 1-732): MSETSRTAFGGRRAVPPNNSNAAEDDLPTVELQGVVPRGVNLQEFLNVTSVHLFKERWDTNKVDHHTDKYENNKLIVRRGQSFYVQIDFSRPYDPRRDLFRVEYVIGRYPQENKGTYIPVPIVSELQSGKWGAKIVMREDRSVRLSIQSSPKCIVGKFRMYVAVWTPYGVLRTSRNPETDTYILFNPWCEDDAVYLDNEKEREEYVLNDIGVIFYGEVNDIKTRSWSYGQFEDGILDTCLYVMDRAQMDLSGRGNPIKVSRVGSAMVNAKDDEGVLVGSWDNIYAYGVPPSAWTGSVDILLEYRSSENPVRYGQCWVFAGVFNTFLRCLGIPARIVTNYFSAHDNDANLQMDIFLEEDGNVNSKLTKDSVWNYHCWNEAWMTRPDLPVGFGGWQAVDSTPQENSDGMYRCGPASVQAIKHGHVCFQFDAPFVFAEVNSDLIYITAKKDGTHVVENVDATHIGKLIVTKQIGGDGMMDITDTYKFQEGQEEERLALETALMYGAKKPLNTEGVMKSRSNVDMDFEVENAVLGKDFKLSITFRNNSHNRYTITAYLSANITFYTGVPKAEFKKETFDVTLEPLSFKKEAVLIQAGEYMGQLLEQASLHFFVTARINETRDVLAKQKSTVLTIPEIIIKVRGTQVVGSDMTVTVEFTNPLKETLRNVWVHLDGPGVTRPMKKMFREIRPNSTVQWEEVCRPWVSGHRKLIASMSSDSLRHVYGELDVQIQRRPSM
Method: FIG. 1 (a) IGF-I Western blot after reaction for 60 minutes with FXIII and PEG derivatized with a glutamine (left lane) or lysine FXIII substrate (right lane). […] (b) 3D structure of IGF-I, with the putative FXIII site at the D domain shown relative to residues identified as important for receptor binding.
In the present experiments, IGF-I was incubated with FXIII and PEG functionalized with either a glutamine (Q)- or lysine (K)-donor TG substrate peptide.

[3] = molecular target: T1, TG2; assay: Reaction of IGF-I with TG2, with or without the Gln-donor substrate glucagon; format: biochemical
Text: FIG. 4 Reaction of IGF-I with glucagon catalysed by TG2. Lane 1: IGF-I control; 2: IGF-I+TG2; 3: TG2 control; 4: Gn control; 5: IGF-I+Gn; 6: TG2+Gn; 7: TG2+Gn+IGF-I. (Gn=glucagon)
In order to confirm this finding, we repeated this experiment using TG2 rather than FXIII, and the known TG2 Gln-donor substrate glucagon (Gn) as a probe (FIG. 4). […] The large band >75 kDa in lane 2 is apparently due to the formation of covalent complexes between IGF-I and TG2 itself; polymerization of IGF-I is also evident. Reaction of IGF-I with Gn (lane 7) also produced polymeric species. A band of MW consistent with (IGF-I)1Gn1 is indicated by an arrow.

[4] = molecular target: insulin-like growth factor I (IGF-I), P05019
Chain of insulin-like growth factor I (IGF-I), P05019 (P05019 whole entry, looked up): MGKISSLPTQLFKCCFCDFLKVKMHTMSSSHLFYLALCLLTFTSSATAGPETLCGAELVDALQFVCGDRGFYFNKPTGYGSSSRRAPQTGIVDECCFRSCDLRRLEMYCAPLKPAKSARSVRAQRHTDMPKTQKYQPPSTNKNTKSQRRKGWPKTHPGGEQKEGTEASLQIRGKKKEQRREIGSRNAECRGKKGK

IGF-I: insulin-like growth factor I, tested as transglutaminase substrate
crosslinking of IGF-I to IGF1R by TG2 [1]: TG2 recognises sites on both the IGF1R and IGF-I, and is able to bind the two together | incorporation of IGF-I into TG substrate-functionalized PEG [2]: quantitatively incorporated into the Q-donor, but not the K-donor PEG | products of reaction of IGF-I alone with TG2 ([3]; lane 2, IGF-I+TG2): produced a series of bands corresponding to IGF-I oligomers | products of reaction of IGF-I with glucagon catalysed by TG2 ([3]; lane 7, TG2+Gn+IGF-I): produced a wide range of molecular weight species

B1: factor XIII (FXIII) (protein)
chain: SETSRTAFGGRRAVPPNNSNAAEDDLPTVELQGVVPRGVNLQEFLNVTSVHLFKERWDTNKVDHHTDKYENNKLIVRRGQSFYVQIDFSRPYDPRRDLFRVEYVIGRYPQENKGTYIPVPIVSELQSGKWGAKIVMREDRSVRLSIQSSPKCIVGKFRMYVAVWTPYGVLRTSRNPETDTYILFNPWCEDDAVYLDNEKEREEYVLNDIGVIFYGEVNDIKTRSWSYGQFEDGILDTCLYVMDRAQMDLSGRGNPIKVSRVGSAMVNAKDDEGVLVGSWDNIYAYGVPPSAWTGSVDILLEYRSSENPVRYGQCWVFAGVFNTFLRCLGIPARIVTNYFSAHDNDANLQMDIFLEEDGNVNSKLTKDSVWNYHCWNEAWMTRPDLPVGFGGWQAVDSTPQENSDGMYRCGPASVQAIKHGHVCFQFDAPFVFAEVNSDLIYITAKKDGTHVVENVDATHIGKLIVTKQIGGDGMMDITDTYKFQEGQEEERLALETALMYGAKKPLNTEGVMKSRSNVDMDFEVENAVLGKDFKLSITFRNNSHNRYTITAYLSANITFYTGVPKAEFKKETFDVTLEPLSFKKEAVLIQAGEYMGQLLEQASLHFFVTARINETRDVLAKQKSTVLTIPEIIIKVRGTQVVGSDMTVTVEFTNPLKETLRNVWVHLDGPGVTRPMKKMFREIRPNSTVQWEEVCRPWVSGHRKLIASMSSDSLRHVYGELDVQIQRRPSM
Western blot for IGF-I after 1 h reaction with FXIII and PEG carrying a glutamine- or lysine-donor TG substrate peptide [4]: after 1 h IGF-I was quantitatively incorporated into the Q-donor, but not the K-donor PEG
